Test results reported in article PMC9232105, “S-Adenosylmethionine–responsive cystathionine β-synthase modulates sulfur metabolism and redox balance in Mycobacterium tuberculosis” (Science Advances, 2022).

B1: MtbCbs L454A (enzyme)
chain: MRIAQHISELIGGTPLVRLNSVVPDGAGTVAAKVEYLNPGGSSKDRIAVKMIEAAEASGQLKPGGTIVEPTSGNTGVGLALVAQRRGYKCVFVCPDKVSEDKRNVLIAYGAEVVVCPTAVPPHDPASYYSVSDRLVRDIDGAWKPDQYANPEGPASHYVTTGPEIWADTEGKVTHFVAGIGTGGTITGAGRYLKEVSGGRVRIVGADPEGSVYSGGAGRPYLVEGVGEDFWPAAYDPSVPDEIIAVSDSDSFDMTRRLAREEAMLVGGSCGMAVVAALKVAEEAGPDALIVVLLPDGGRGYMSKIFNDAWMSSYGFLRSRLDGSTEQSTVGDVLRRKSGALPALVHTHPSETVRDAIGILREYGVSQMPVVGAEPPVMAGEVAGSVSERELLSAVFEGRAKLADAVSAHMSPPLRMIGAGELVSAAGKALRDWDALMVVEEGKPVGVITRYDLAGFLSEGAGRR
B2: MtbCbs I357A (enzyme)
chain: MRIAQHISELIGGTPLVRLNSVVPDGAGTVAAKVEYLNPGGSSKDRIAVKMIEAAEASGQLKPGGTIVEPTSGNTGVGLALVAQRRGYKCVFVCPDKVSEDKRNVLIAYGAEVVVCPTAVPPHDPASYYSVSDRLVRDIDGAWKPDQYANPEGPASHYVTTGPEIWADTEGKVTHFVAGIGTGGTITGAGRYLKEVSGGRVRIVGADPEGSVYSGGAGRPYLVEGVGEDFWPAAYDPSVPDEIIAVSDSDSFDMTRRLAREEAMLVGGSCGMAVVAALKVAEEAGPDALIVVLLPDGGRGYMSKIFNDAWMSSYGFLRSRLDGSTEQSTVGDVLRRKSGALPALVHTHPSETVRDAAGILREYGVSQMPVVGAEPPVMAGEVAGSVSERELLSAVFEGRAKLADAVSAHMSPPLRMIGAGELVSAAGKALRDWDALMVVEEGKPVGVITRYDLLGFLSEGAGRR
notes: also called I357A mutant
B3: MtbCbs S393R (enzyme)
chain: MRIAQHISELIGGTPLVRLNSVVPDGAGTVAAKVEYLNPGGSSKDRIAVKMIEAAEASGQLKPGGTIVEPTSGNTGVGLALVAQRRGYKCVFVCPDKVSEDKRNVLIAYGAEVVVCPTAVPPHDPASYYSVSDRLVRDIDGAWKPDQYANPEGPASHYVTTGPEIWADTEGKVTHFVAGIGTGGTITGAGRYLKEVSGGRVRIVGADPEGSVYSGGAGRPYLVEGVGEDFWPAAYDPSVPDEIIAVSDSDSFDMTRRLAREEAMLVGGSCGMAVVAALKVAEEAGPDALIVVLLPDGGRGYMSKIFNDAWMSSYGFLRSRLDGSTEQSTVGDVLRRKSGALPALVHTHPSETVRDAIGILREYGVSQMPVVGAEPPVMAGEVAGSVSERELLRAVFEGRAKLADAVSAHMSPPLRMIGAGELVSAAGKALRDWDALMVVEEGKPVGVITRYDLLGFLSEGAGRR
B4: MtbCbs R450A (enzyme)
chain: MRIAQHISELIGGTPLVRLNSVVPDGAGTVAAKVEYLNPGGSSKDRIAVKMIEAAEASGQLKPGGTIVEPTSGNTGVGLALVAQRRGYKCVFVCPDKVSEDKRNVLIAYGAEVVVCPTAVPPHDPASYYSVSDRLVRDIDGAWKPDQYANPEGPASHYVTTGPEIWADTEGKVTHFVAGIGTGGTITGAGRYLKEVSGGRVRIVGADPEGSVYSGGAGRPYLVEGVGEDFWPAAYDPSVPDEIIAVSDSDSFDMTRRLAREEAMLVGGSCGMAVVAALKVAEEAGPDALIVVLLPDGGRGYMSKIFNDAWMSSYGFLRSRLDGSTEQSTVGDVLRRKSGALPALVHTHPSETVRDAIGILREYGVSQMPVVGAEPPVMAGEVAGSVSERELLSAVFEGRAKLADAVSAHMSPPLRMIGAGELVSAAGKALRDWDALMVVEEGKPVGVITAYDLLGFLSEGAGRR
B5: MtbCbs E388A (enzyme)
chain: MRIAQHISELIGGTPLVRLNSVVPDGAGTVAAKVEYLNPGGSSKDRIAVKMIEAAEASGQLKPGGTIVEPTSGNTGVGLALVAQRRGYKCVFVCPDKVSEDKRNVLIAYGAEVVVCPTAVPPHDPASYYSVSDRLVRDIDGAWKPDQYANPEGPASHYVTTGPEIWADTEGKVTHFVAGIGTGGTITGAGRYLKEVSGGRVRIVGADPEGSVYSGGAGRPYLVEGVGEDFWPAAYDPSVPDEIIAVSDSDSFDMTRRLAREEAMLVGGSCGMAVVAALKVAEEAGPDALIVVLLPDGGRGYMSKIFNDAWMSSYGFLRSRLDGSTEQSTVGDVLRRKSGALPALVHTHPSETVRDAIGILREYGVSQMPVVGAEPPVMAGEVAGSVSARELLSAVFEGRAKLADAVSAHMSPPLRMIGAGELVSAAGKALRDWDALMVVEEGKPVGVITRYDLLGFLSEGAGRR
B6: MtbCbs mutant lacking the Bateman module (MtbCbs 1-317) (domain or fragment)
chain: MRIAQHISELIGGTPLVRLNSVVPDGAGTVAAKVEYLNPGGSSKDRIAVKMIEAAEASGQLKPGGTIVEPTSGNTGVGLALVAQRRGYKCVFVCPDKVSEDKRNVLIAYGAEVVVCPTAVPPHDPASYYSVSDRLVRDIDGAWKPDQYANPEGPASHYVTTGPEIWADTEGKVTHFVAGIGTGGTITGAGRYLKEVSGGRVRIVGADPEGSVYSGGAGRPYLVEGVGEDFWPAAYDPSVPDEIIAVSDSDSFDMTRRLAREEAMLVGGSCGMAVVAALKVAEEAGPDALIVVLLPDGGRGYMSKIFNDAWMSSYGFL
B7: MtbCbs E390A (enzyme)
chain: MRIAQHISELIGGTPLVRLNSVVPDGAGTVAAKVEYLNPGGSSKDRIAVKMIEAAEASGQLKPGGTIVEPTSGNTGVGLALVAQRRGYKCVFVCPDKVSEDKRNVLIAYGAEVVVCPTAVPPHDPASYYSVSDRLVRDIDGAWKPDQYANPEGPASHYVTTGPEIWADTEGKVTHFVAGIGTGGTITGAGRYLKEVSGGRVRIVGADPEGSVYSGGAGRPYLVEGVGEDFWPAAYDPSVPDEIIAVSDSDSFDMTRRLAREEAMLVGGSCGMAVVAALKVAEEAGPDALIVVLLPDGGRGYMSKIFNDAWMSSYGFLRSRLDGSTEQSTVGDVLRRKSGALPALVHTHPSETVRDAIGILREYGVSQMPVVGAEPPVMAGEVAGSVSERALLSAVFEGRAKLADAVSAHMSPPLRMIGAGELVSAAGKALRDWDALMVVEEGKPVGVITRYDLLGFLSEGAGRR
B8: MtbCbs W433F (enzyme)
chain: MRIAQHISELIGGTPLVRLNSVVPDGAGTVAAKVEYLNPGGSSKDRIAVKMIEAAEASGQLKPGGTIVEPTSGNTGVGLALVAQRRGYKCVFVCPDKVSEDKRNVLIAYGAEVVVCPTAVPPHDPASYYSVSDRLVRDIDGAWKPDQYANPEGPASHYVTTGPEIWADTEGKVTHFVAGIGTGGTITGAGRYLKEVSGGRVRIVGADPEGSVYSGGAGRPYLVEGVGEDFWPAAYDPSVPDEIIAVSDSDSFDMTRRLAREEAMLVGGSCGMAVVAALKVAEEAGPDALIVVLLPDGGRGYMSKIFNDAWMSSYGFLRSRLDGSTEQSTVGDVLRRKSGALPALVHTHPSETVRDAIGILREYGVSQMPVVGAEPPVMAGEVAGSVSERELLSAVFEGRAKLADAVSAHMSPPLRMIGAGELVSAAGKALRDFDALMVVEEGKPVGVITRYDLLGFLSEGAGRR
B9: MtbCbs S411A (enzyme)
chain: MRIAQHISELIGGTPLVRLNSVVPDGAGTVAAKVEYLNPGGSSKDRIAVKMIEAAEASGQLKPGGTIVEPTSGNTGVGLALVAQRRGYKCVFVCPDKVSEDKRNVLIAYGAEVVVCPTAVPPHDPASYYSVSDRLVRDIDGAWKPDQYANPEGPASHYVTTGPEIWADTEGKVTHFVAGIGTGGTITGAGRYLKEVSGGRVRIVGADPEGSVYSGGAGRPYLVEGVGEDFWPAAYDPSVPDEIIAVSDSDSFDMTRRLAREEAMLVGGSCGMAVVAALKVAEEAGPDALIVVLLPDGGRGYMSKIFNDAWMSSYGFLRSRLDGSTEQSTVGDVLRRKSGALPALVHTHPSETVRDAIGILREYGVSQMPVVGAEPPVMAGEVAGSVSERELLSAVFEGRAKLADAVSAHMAPPLRMIGAGELVSAAGKALRDWDALMVVEEGKPVGVITRYDLLGFLSEGAGRR
B10: MtbCbs D432N (enzyme)
chain: MRIAQHISELIGGTPLVRLNSVVPDGAGTVAAKVEYLNPGGSSKDRIAVKMIEAAEASGQLKPGGTIVEPTSGNTGVGLALVAQRRGYKCVFVCPDKVSEDKRNVLIAYGAEVVVCPTAVPPHDPASYYSVSDRLVRDIDGAWKPDQYANPEGPASHYVTTGPEIWADTEGKVTHFVAGIGTGGTITGAGRYLKEVSGGRVRIVGADPEGSVYSGGAGRPYLVEGVGEDFWPAAYDPSVPDEIIAVSDSDSFDMTRRLAREEAMLVGGSCGMAVVAALKVAEEAGPDALIVVLLPDGGRGYMSKIFNDAWMSSYGFLRSRLDGSTEQSTVGDVLRRKSGALPALVHTHPSETVRDAIGILREYGVSQMPVVGAEPPVMAGEVAGSVSERELLSAVFEGRAKLADAVSAHMSPPLRMIGAGELVSAAGKALRNWDALMVVEEGKPVGVITRYDLLGFLSEGAGRR

Biological target: the molecule itself
Experiment: SEC

**Q.** Does B1 bind?
**A.** Result: binds

**Q.** Does B2 bind?
**A.** Result: binds

**Q.** Does B3 bind?
**A.** Result: binds

**Q.** Does B4 bind?
**A.** Result: binds

**Q.** Does B5 bind?
**A.** Result: binds

**Q.** For B6, which “stoichiometry N” value is on record?
**A.** Its value is 2.

Biological target: the molecule itself
Experiment: not given

**Q.** For B7, which “stoichiometry N” value is on record?
**A.** Its value is 4.

**Q.** For B8, which “stoichiometry N” value is on record?
**A.** The value was 4.

**Q.** For B9, which “stoichiometry N” value is on record?
**A.** Its value is 4.

**Q.** Which “stoichiometry N” value does the source give for B10 here?
**A.** The value was 4.
